pKd: −log10 of the molar value.
Target: A-CooP
Test: SPR; Biacore T100; A-CooP immobilised on a CM5 chip (FC-4) by amine coupling, scrambled control peptide on the reference flow cell (FC-3); FABP3 as analyte 0.5-32 µM; 25 °C; PBS with 0.05% Tween-20, pH 7.4; steady state affinity fit of reference-subtracted sensorgrams; mean of three experiments

recombinant N-terminal His6-tagged human FABP3 (natural protein)
pKd: 4.78
